Data on one protein can be found in doi:10.1101/2025.08.22.671756, “Structural basis of Drosophila insulin receptor activation by DILP2 hormone” (bioRxiv, 2025).

This data set concerns the molecule itself. Description: cryo-EM structure; dmIR-ECD 0.2 mg/ml in SEC buffer (25 mM HEPES pH 8.0, 200 mM NaCl) incubated with 40-fold molar excess of DILP2 at room temperature for 30 min; two conformers from subsets of the particles (3.75 Å and 6.25 Å maps).

B1: Drosophila melanogaster insulin receptor ectodomain (dmIR-ECD) (domain or fragment, UniProt P09208 291-1309, looked up)
chain: LPAHQQHLLHNDIADGLDKTALSVSGTQSRWTRSESNPTMRLSQNVKPCKSMDIRNMVSHFNQLENCTVIEGFLLIDLINDASPLNRSFPKLTEVTDYIIIYRVTGLHSLSKIFPNLSVIRGNKLFDGYALVVYSNFDLMDLGLHKLRSITRGGVRIEKNHKLCYDRTIDWLEILAENETQLVVLTENGKEKECRLSKCPGEIRIEEGHDTTAIEGELNASCQLHNNRRLCWNSKLCQTKCPEKCRNNCIDEHTCCSQDCLGGCVIDKNGNESCISCRNVSFNNICMDSCPKGYYQFDSRCVTANECITLTKFETNSVYSGIPYNGQCITHCPTGYQKSENKRMCEPCPGGKCDKECSSGLIDSLERAREFHGCTIITGTEPLTISIKRESGAHVMDELKYGLAAVHKIQSSLMVHLTYGLKSLKFFQSLTEISGDPPMDADKYALYVLDNRDLDELWGPNQTVFIRKGGVFFHFNPKLCVSTINQLLPMLASKPKFFEKSDVGADSNGNRGSCGTAVLNVTLQSVGANSAMLNVTTKVEIGEPQKPSNATIVFKDPRAFIGFVFYHMIDPYGNSTKSSDDPCDDRWKVSSPEKSGVMVLSNLIPYTNYSYYVRTMAISSELTNAESDVKNFRTNPGRPSKVTEVVATAISDSKINVTWSYLDKPYGVLTRYFIKAKLINRPTRNNNRDYCTEPLVKAMENDLPATTPTKKISDPLAGDCKCVEGSKKTSSQEYDDRKVQAGMEFENALQNFIFVPNIRKSKNGSSDKSDGAEGAALDSNAIPNGGATNPSRRRRDVALEPELDDVEGSVLLRHVRSITDDTDAFFEKDDENTYKDEEDLSSNKQFYEVFAKELPPNQTHFVFEKLRHFTRYAIFVVACREEIPSEKLRDTSFKKSLCSDYDTVFQTTKRKKFADIVMDLKVDLEHANNTESPVRVRWTPPVDPNGEIVTYEVAYKLQKPDQVEEKKCIPAADFNQTAGYLIKLNEGLYSFRVRANSIAGYGDFTEVEHIKVEPPPSYA
notes: Insulin receptor (dmIR), Drosophila melanogaster, ectodomain; Expressed from codon-optimised DNA for residues 264-1309 with an added start codon; the results name the construct 291Leu-1309Ala; Described as an (αβ)2 homodimer; N-glycans are visible in the maps; also called dmIR ectodomain; 291Leu-1309Ala dmIR-ECD construct; source: Sf9 (ExpiSf9) cells, baculovirus, conditioned media, purified …
Consider B1, for which the binding result was “binds”.
